# Reference: US20250326867A1, “De novo designed chlorophyll special pair proteins” (University of Washington, priority 2024, published 2025)
# Residue numbers refer to the chain shown, from its start.
# B1: JF (designed binder)
# chain: SGSGSSDELQARFLILSAKLQAEMAQIAAERTGDPRVRELARELKRLAQEAAEEVKRDPSSSEVNSNLALISMAIALAVLALLLARKAGDEEARDIAREAVEVAVRAAELILEGRDDQRAWTLWLIAHALLMAVYAARLGNSEVAELAVKVLRLAKELEKLLPSEEALFVVSMIGLAALQAAMAAAGGQEDYARDALRRLEEAIREAEENRSKESLEKVEEEGIEAMEQALRAIAGG
# notes: Designed homodimer subunit, after TEV cleavage
# B2: tj79C2-H65A (designed binder)
# chain: SGSGSREDELLARYLILLAELAAEEADIAAERTGDPRVRELARELKRLAQEAAEEVKRDPSSSDVNHALHLIVLAILIAVEALEAAERTGDPEVRELARELVRLAVEAAEEVQRNPSSSDVLKALILILLAIIQAVKALEAAERTGDPEVRELARELVRLAVEAAEEVQRNPSSKEVTMALLLILIAILEAVLSLLRAERSGDPEKREKARERVREAVERAEEVQRDPSGW
# notes: as for B1
# B3: tj79C2-H65B (designed binder)
# chain: B2 chain with L11F, E25R, H67L, I78A, I126M, L129V, I133L, K137Q, T178Y
# notes: as for B1
# B4: SP2 (designed binder)
# chain: SGSGSSDEEFKFLATEAKMLITAAERLAGTDPELQEMVALIKKELEQAERTFRNGDKSEAQRQLEFVLTAARAVMNVAAAANAAGTDPELIEMVLRILKQLKEAIRTFQNGDQEEAETQLRFVLRAAIAVAVVAAALVLAGTDPELQEMVKQILEELKQAIETFARGDKEKALTQLLFVAWAAHAVAMIAAAANLAGTDPRLQQQVKEILEKLKEAIETFQKGDEEQAFRQLAEVLAEAALVALRAALTN
# notes: De novo designed subunit of a C2 homodimer
# B5: JG (designed binder)
# chain: SGSGSSDELEARLLIISANLQAEMAQIAAERTGDPRVRELARELKRLAQEAAEEVKRDPSSSEVNQNLTLISMAIALAVLALLLARKAGDEEARDIAREAVEVAVRAAELILEGRDEQRAWTLFLIAHALLLAVLAARLGNSEVAELAVKVLRLAKELEKLLPSEIALFVVSMIGMAALQAAMAASGGQEDYARDALRRLEEAIREAEENRSKESLEKVMEEAIRAYEQALRALAGG
# notes: as for B1
# B6: tj79C2-H65C (designed binder)
# chain: SGSGSREDELIARYLILLAELAAERADIAAERTGDPRVRELARELKRLAQEAAEEVKRDPSSSDVFMALHLIVLAIQIAVKALEAAERTGDPEVRELARELVRLAVEAAEEVQRNPSSSDVFLALLLIVTAIMLAVEALEAAERTGDPEVRELARELVRLAVEAAEEVQRNPSSKEVLMALLLILIAILEAVLSLLRAERSGDPEKREKARERVREAVERAEEVQRDPSGW
# notes: as for B1
# B7: D2T (designed binder)
# chain: SGSGSEEEELERLKEQLKIWQKLIKLILEQDPNDEQIRRILEQAEEIIQKLQEDPNNEELQRLIQLLFQLVLGIFIIKQILELDPNDEQIRRILEQAKEIIQKLQEDPNNEELYRLQGLLGMLVGIILLIKLMLEQDPNDELIREILEQAKEIIQKLQEDPNNQELLSLIHLLLALVLWIWFMKFQLEQDPNDEEIRRQLEQLEERIRRTLE
# notes: as for B1
# B8: SP1 (designed binder)
# chain: GGDSRELIARYQILLAELAAIRADIAAERTGDPYVRKLARELKRLAQEAAEEVKRDPSSSDVNMALLLILLMIELAVRALEAAERTGDPEVRELAAELVWLAVEAAEEVQRNPSSSDVWLALHLIMLAIWAAVAALEAAERTGDPEVRELARELVRLAVEAAEEVQRNPSSKEVYMALLLILIAILEAVLSLLRAERSGDPEKREKARERVREAVERAEEVQR
# notes: as for B4
# B9: D2S (designed binder)
# chain: SGSGSEEEELERLKEQLKIWQKLIKLILEQDPNDEQIRRILEQAEEIIQKLQEDPNNEELQRLIQLLFNLVAIIFSIKQILELDPNDEQIRRILEQAKEIIQKLQEDPNNEELFLLAHMLFALVAIILLIKLMLEQDPNDELIREILEQAKEIIQKLQEDPNNAELAMLIALLLSLVLWIWFMKFQLEQDPNDEEIRRQLEQLEERIRRTLE
# notes: as for B1
# B10: D2L (designed binder)
# chain: SGSGSREKELKQLISNLQILLLILLSEDPNNELVRKLQEKIKEAEEQGDPRRLKLIWWILNLIQMLQQLEQEDPNNELVKRLKELIKRALEEGDPRLLLLIHIILALIWLLQALEKEDPNNELVKRLKKLIEEALKEGDPRKLIQIALLLTWIATIQRLKKQDPNNELIKRAEETLEQSLKT
# notes: as for B1
# B11: D2O (designed binder)
# chain: SGSGSEEEEIRLAQLAIQIIQYQVEKNGDEQLLRLIQEITEQLQKEGDERLIRILLAMFAIILILEHVEKNGDEELLRLIQEITEKLARQGDERLIRILIAMAGIIWILELVKKNGDEQLLRLIREITRKLAEEGDERLIQILLAMHAIIISSEQLEKNGDEELLQKLRELLEKIAKE
# notes: as for B1
# B12: D2Q (designed binder)
# chain: SGSGSEEEEKRLIEKMSKFIWWFAQQLGDERILRAVEKLQQEIKENSPTPETYMTLGNLLLSLLIWWAAQQLGDEKILEAVERLLQQIEENSPTPETHLTLAILMSALAIWQQAQKLGDEDILEAVERLLEEIQRNSPTPSTMTKLLWLALLLNNWEELQKQGDEEQLRSSEKAMKELKE
# notes: as for B1
# B13: tj79C2-H69A (designed binder)
# chain: SGSGSREDELQARLQLLAAELAAEEADIAAERTGDPRVRELARELKRLAQEAAEEVKRDPSSSDVNAALVLITHAIMLAVEALKAAERTGDPEVRELARELVRLAVEAAEEVQRNPSSSDVNKALFLIMMAIITAVTALEAAERTGDPEVRELARELVRLAVEAAEEVQRNPSSKEVDMALLLILIAILEAVLSLLRAERSGDPEKREKARERVREAVERAEEVQRDPSGW
# notes: as for B1
# B14: D2R (designed binder)
# chain: SGSGSEEEELKRLQTLIKYLQLLIQNAKWQNPDDELLRQVEELIEEMKKRLEENPNSQEDQALLKLLITIIALIIMILWLKSENPDDELLRQVEELIKEMIERLKENPNSQEDQALLQLLHAILGLILLIQQLKKQNPDDELLQQVEELIEEMIKRLKENPNSEKDQILLSFLALSLLSIFLIQTQKKQNPDDERLKQWEKQIKESIESSKE
# notes: as for B1
# B15: D2P (designed binder)
# chain: SGSGSEEEEKRLIEKMSKFIWWFAQQLGDERILRAVEKLQQEIKENSPTPETFMTLINLLLSLLIWWAAQKLGDEKILEAVERLLQQIEENSPTPETHMTLAALAQSLAIWQQAQKLGDEDILEAVERLLEEIQRNSPTPSTLIKLTWLLLLLNNWQELQKQGDEEQLRSSEKAMKELKE
# notes: as for B1
# B16: tj79C2-H62A (designed binder)
# chain: SGSGSRYDELNARLLILLAELAAERADIAAERTGDPRVRELARELKRLAQEAAEEVKRDPSSWSVLHALWLIVVAIEAAVRALEAAERTGDPEVRELARELVRLAVEAAEEVQRNPSSWDVFMALLLIVFAIEAAVRALEAAERTGDPEVRELARELVRLAVEAAEEVQRNPSSKEVDMALLLILIAILEAVLSLLRAERSGDPEKREKARERVREAVERAEEVQRDPSGW
# notes: as for B1
# B17: D2K (designed binder)
# chain: SGSGSREKELKQLISNLQILLLILLSQDPNNELVRKLQEKIKEAEEQGDPRRLKLIWWILALINILQALEQEDPNNELVKRLKELIKRALEEGDPRLLQLILLILHLIWLLQALEKEDPNNELVKRLKKLIEEALKEGDPRKLWQILALLLWIAQIQKLKKQDPNNELIKRAEETLEQSLKT
# notes: as for B1
# B18: tj79C2-H65D (designed binder)
# chain: SGSGSREDELQARLLILLIELAAERADIAAERTGDPRVRELARELKRLAQEAAEEVKRDPSSSDVWLALHLIVIAILIAVEALEAAERTGDPEVRELARELVRLAVEAAEEVQRNPSSSDVLKALMLILIAILLLLEALEAAERTGDPEVRELARELVRLAVEAAEEVQRNPSSKEVQMALLLILIAILEAILSLLRAERSGDPEKREKARERVREAVERAEEVQRDPSGW
# notes: as for B1
# B19: tj79C2-H65E (designed binder)
# chain: B18 chain with Q11W, W66L, K123I
# notes: as for B1
# B20: D2N (designed binder)
# chain: SGSGSEEEEIRLAQLTIQIIQYQVEKNGDEQLLRLIQEITEQLQKEGDERLIRILNAMFTIIWILEAVEKNGDEELLRLIQEITEKLARQGDERLIKILSAMAGIIWILEIVKKNGDEQLLRLIREITRKLAEEGDERLIQILANMHSIIISSEELEKNGDEELLQKLRELLEKIAKELEHHHHHH
# notes: as for B1
# B21: D2M (designed binder)
# chain: SGSGSEEEQIRLAQLAIQIIQYQVEKNGDEQLLRLIQEITEQLQKEGDERLIAILSTMFGIIWILEQVEKNGDEELLRLIQEITEKLARQGDERLIQIGAAMLAIIIILEQVKKNGDEQLLRLIREITRKLAEEGDQRLIWILHAMMAIIMSSEELEKNGDEELLQKLRELLEKIAKE
# notes: as for B1
# B22: JH (designed binder)
# chain: SGSSEELAREAREAAIRLAQASTKLMEAMIRGDLKELAEALIELARAVQELARVAKEYGNDELAKLAAFLAAHIAMLAIWVLILAIREGDDEVRELAKTAIKLASTAAKIVLDALPTAEEVRIITLLAKLAEEAADKKNEDSALAVLIAAMAVLIALAALEAAQRAGIEEAEKAARLLLKLAGEAARKKNPEEAKAVYNAALLVSIALLLLQKAKRAGSEETRRLAEEMLRQALERARKKN
# notes: as for B1
# Biological target: the molecule itself
# Assay: size-exclusion chromatography, self-association (homodimer)
# Protocol: FIG. 7. Size exclusion chromatography (SEC) traces of purified SP apo-proteins. Proteins were injected as 0.5 mL aliquots onto a Superdex™ 200 Increase 10/300 GL column (Cytiva Life Sciences). The narrow, isolated peaks indicate that the samples contain monodisperse protein. Running buffer was 150 mM NaCl, 10 mM Tris at pH 8. Proteins were purified by Ni-NTA and one round of SEC prior to collecting the data shown.
# Proteins were purified by Ni-NTA and size-exclusion chromatography (SEC) (FIG. 7). […] A slightly lower predicted radius of gyration (Rg) value compared to experimental SAXS data is likely due to a dense hydration shell around the highly charged SP proteins (Svergun et al. 1998; Kim et al. 2016). The far ultraviolet (UV) circular dichroism (CD) spectra of three SP proteins that expressed in high yield (≥140 mg/L) show the proteins are highly α-helical with and without the synthetic Chl a derivative, Zn pheophorbide a methyl ester (ZnPPaM). Thermal denaturation curves monitored by the CD signal at 222 nm indicate that all three proteins are highly thermostable in the apo- and holo-states (FIG. 2).
row,Protein,binding result
1,B1,binds
2,B2,binds
3,B3,binds
4,B4,binds
5,B5,binds
6,B6,binds
7,B7,binds
8,B8,binds
9,B9,binds
10,B10,binds
11,B11,binds
12,B12,binds
13,B13,binds
14,B14,binds
15,B15,binds
16,B16,binds
17,B17,binds
18,B18,binds
19,B19,binds
20,B20,binds
21,B21,binds
22,B22,binds
